From the nanobody polyreactivity screen of Harvey et al. (2022)

Experiment: yeast display, Sf9 membrane polyspecificity reagent, FACS + sequencing; frameworks hold sequencing errors
How it was run: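 Nanobodies came from a synthetic yeast display library in Saccharomyces cerevisiae BJ5465, induced with galactose for 36–48 hours and stained for 1 hour at 4 °C with 10% biotinylated, detergent-solubilized Sf9 membrane reagent. Cells were enriched on streptavidin microbeads and then FACS-sorted, with low and high (top ~1%) gates set on anti-HA fluorescence for expression and streptavidin fluorescence for reagent binding. Each polyreactivity label reflects the gate a clone came from. Genes were amplified by colony PCR, sequenced by MiSeq 2 × 250 and filtered by CDR length.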

Sequence	polyreactivity (PSR sort gate)
QVQLVESGGGLVQAGGSLRLSCAASGFTFLYYAMGWYRQAPGKERELVAAISASSDRTYYADSVKGRFTISRDNAMNTVYLQMNSLKPDDTAVYYCAAYNSRVGGYRGYGYWGQGTLVTVSS	high polyreactivity
QVQLVESGGGLVQAGGSLRLSCAASGFTFNCYAMGWYRQAPGKERELVARIRWRGSTYYADSVKGRFTISRDNAKNTVYLQMNSLKPEDTAVYYCAARYYTKLYWGQGTQVTVSS	high polyreactivity
QVQLVESGGGLVQAGGSLRLSCAASGFTFNDYAMGWYRQAPGKARELVAAIEWYGGRTYYADSVKGRFTISRDHAKNTDYFHMTSLKPVATAVYYCAAVLYSRLDWYRLDYWGQGTQVTVSS	low polyreactivity
QVQLVESGGGLVQAGGSLRLSCAASGFTFNDYAMGWYRQAPGKEWELVAAIDWSGGRTYYADSVKGRFTISRDNAKNTVYLQMNSLKAEDTAVYYFAAVLYSRLYWYRLDYWGQGTQVTVSS	low polyreactivity
QVQLVESGGGLVQAGGSLRLSCAASGFTFNKYAMGWYRQAPRKERELVAAISSSGGSTRYADSVKGRFTISRDNAKNTVYLQMISLKPEDTAVYYCAVYVTRDSGWWLYDYWGQGTQVTVSS	high polyreactivity
QVQLVESGGGLVQAGGSLRLSCAASGFTFNRYAMGWYRQAPGKERELVAAISWSGTSTYYADSVKGRFTISRDNAKNTVYLQMNSLKPEDTAVYYCAARVKGQWNTYDYWGQGTQVTVSS	high polyreactivity
QVQLVESGGGLVQAGGSLRLSCAASGFTFNSYAMGWYRQAPGKERELVAAISSSGGRTYYADSVKGRFTISRDNAKNTVYLQMNSLKPEETAVYYCNAVLVSYYSVGYDYWGQGTQVTVSS	high polyreactivity
QVQLVESGGGLVQAGGSLRLSCAASGFTFNYAMGWYRQAPGKERELVAAISSAGTTYYADSVKGRFTISRDNAKNTVYLQMNSLKPEDTAVYYCAALARPKQDRYRYYYWGQGTQVTVSS	high polyreactivity
QVQLVESGGGLVQAGGSLRLSCAASGFTFNYYAMGWYRQAPGKERELVAAITWRSGRTSYADSVKGRFTISRDNAKNTVYLQMNSLKPEDTAVYYCAKYTIYYGLTRYGYWGQGTQVTVSS	high polyreactivity
QVQLVESGGGLVQAGGSLRLSCAASGFTFPDYAMGWYRQAPGKERELVAAITSSGGSTYYADSVKGRFTISRDNAKNTVYLQMNSLKPEDTAVYYCNAYISDDRYWSPAIEEDYWGQGTQVTVSS	high polyreactivity
QVQLVESGGGLVQAGGSLRLSCAASGFTFPDYAMGWYRQAPGKERELVAGISSTGDSTYYADSGKGRYTISRDNAKNTGYLQRNSLKPEETAVYYCNAAQERPSIILFSKYDYWGQGTQETVSS	low polyreactivity
QVQLVESGGGLVQAGGSLRLSCAASGFTFPEYTMGWYRQAPGKERELVAAISWSGGSTYYADSVKGRFTISRDNAKNSVYLQMNSLKPEDTAVYYCNWKRGYGYWGQGTQVTVSS	high polyreactivity
QVQLVESGGGLVQAGGSLRLSCAASGFTFPFYTMGWYRQAPGKERELVAAITRSGASTFYADSVKGRFTISRDNAKNTVYLQMNSLKPEDTAVYYCAARRGYAPYEYWGQGTQVTVSS	high polyreactivity
QVQLVESGGGLVQAGGSLRLSCAASGFTFPGYAMGWYRQAPGKERKLVAAITGSGGRTYYADSVKGRFTISRDNAKNTVYLQMNSLKPEDTAVYYCLARSYYNWYDYWGQGTQVTVSS	high polyreactivity
QVQLVESGGGLVQAGGSLRLSCAASGFTFPGYTMGWSRQAPGKERELVAAISTSGGSTYYADSVKGRFTISRDNAKNTVYLQMNSLKPEDTAVYYCAAAKPRVISQNIIYDYWGQGTQVTVSS	high polyreactivity
QVQLVESGGGLVQAGGSLRLSCAASGFTFPGYVMGWYRQAPGKERELVAAISRSGGRTYYADSVKGRFTISRDNAKNTVYLQMNSQKPDDTAVYYCNTPDPGRDSDYWGQGTQVTVSS	high polyreactivity
QVQLVESGGGLVQAGGSLRLSCAASGFTFPPYAMGLYIQATGKETELVAAITVGGGRTYYADSVKARFTISRDNARNTVYLQMNWLKPVDTAVYYCDADSHASTYDYWGQGTQVTVSS	low polyreactivity
QVQLVESGGGLVQAGGSLRLSCAASGFTFPPYGMGWYRQAPGKERELVASISIGGGTYYADSVKGRFTISRDNAQNTVYLQMNSLKPEDTPVYYCAADLGQWSYYEFDYWGQGTQVTVSS	low polyreactivity
QVQLVESGGGLVQAGGSLRLSCAASGFTFPQYAMGWYIQAPGKERELVASITRRGGSTFYADSVKGRFTISRDNAKNTVYLQMNSLKPEDTAVYYSAAGDYSRSVSRYWYTDYDYWGQGTQVTVSS	high polyreactivity
QVQLVESGGGLVQAGGSLRLSCAASGFTFPRYVMGWYRQAPGKEREFVAAITFSGGSTYYADSVKGRFTNSRDNAKNTVYLQMNSLKPEDTAVYYCAAGASLWRLGLKMGYWGQGTQVTVSS	low polyreactivity
QVQLVESGGGLVQAGGSLRLSCAASGFTFPTYAMGWYRQAPGKERELVAAISTSGARTYYADSVKGRFTISRDNAKNTVYLQMNSLKPEDTAVYYCAVGSIYTIGFRKGYRFDYWGQGTQVTVSS	high polyreactivity
QVQLVESGGGLVQAGGSLRLSCAASGFTFPVYAMGWYRQATGKVRELVAAISRRGGRTYYADSVKGRFTISRDNAKNTVSLQMNSLKPEDTAVYYCNKGETLYGSVPYDYWGQGTQVTVSS	high polyreactivity
